Experimental findings from the supplement of paper PMC9112550, “Optimization of the antimicrobial peptide Bac7 by deep mutational scanning” (BMC Biology, 2022) are described below.

This data set deals with Escherichia coli TOP10. As to the kind of experiment: shrunken log2 fold change of peptide-encoding DNA abundance (4.5 h post-induction vs induction); higher = less antimicrobial activity (less host growth inhibition). Particulars: time post-induction: 4.5 h; library: site-saturation at positions 5, 18, 19, 20.
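Further: peptides expressed intracellularly from a pBAD plasmid library in pooled LB shake-flask culture, induced with 0.3% L-arabinose, DNA abundance read by NGS, three biological replicates, DESeq2 with apeglm shrinkage.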

Regarding RRIRLRPPRLPRPRPRPQAQPRP, the “shrunken log2 fold change” value came out at 0.0698. Consider RRIRNRPPRLPRPRPRPRLAPRP, for which the “shrunken log2 fold change” value is 0.404. RRIRERPPRLPRPRPRPLNTPRP: the “shrunken log2 fold change” value was -1.11. With RRIRIRPPRLPRPRPRPHSCPRP, the “shrunken log2 fold change” value was -0.0433. In the case of RRIRERPPRLPRPRPRPFCTPRP, the “shrunken log2 fold change” value was -0.304. As to RRIRKRPPRLPRPRPRPEISPRP, the “shrunken log2 fold change” value is -0.0587.

Consider RRIRKRPPRLPRPRPRPMEHPRP, for which the “shrunken log2 fold change” value was -0.0568. In the case of RRIRYRPPRLPRPRPRPGWGPRP, the “shrunken log2 fold change” value is -0.13. RRIRARPPRLPRPRPRPIWVPRP: the “shrunken log2 fold change” value was 0.226. Regarding RRIRWRPPRLPRPRPRPKPPPRP, the “shrunken log2 fold change” value is 0.821. In the case of RRIRMRPPRLPRPRPRPECYPRP it was -0.192; in that of RRIRTRPPRLPRPRPRPHQKPRP, -0.127. On to RRIRTRPPRLPRPRPRPFFSPRP, for which the “shrunken log2 fold change” value is -0.135. With RRIRYRPPRLPRPRPRPHSEPRP, the “shrunken log2 fold change” value is -0.0168. As for RRIRMRPPRLPRPRPRPIWDPRP, the “shrunken log2 fold change” value stood at 0.0663. With RRIRVRPPRLPRPRPRPSTDPRP, the “shrunken log2 fold change” value is -0.0464. On to RRIRCRPPRLPRPRPRPLVAPRP, for which the “shrunken log2 fold change” value is 0.033. Under RRIRYRPPRLPRPRPRPDWDPRP stands -0.543; under RRIRDRPPRLPRPRPRPTTHPRP, 0.313. Under RRIRIRPPRLPRPRPRPYIGPRP stands -0.775; under RRIRHRPPRLPRPRPRPAVMPRP, -0.0305. Consider RRIRVRPPRLPRPRPRPPMFPRP, for which the “shrunken log2 fold change” value is -0.161. Consider RRIRYRPPRLPRPRPRPYWTPRP, for which the “shrunken log2 fold change” value is -0.00804. RRIRVRPPRLPRPRPRPALPPRP: the “shrunken log2 fold change” value worked out at 0.329. In the case of RRIRYRPPRLPRPRPRPMDEPRP it was -0.115; in that of RRIRLRPPRLPRPRPRPVSKPRP, -0.181. RRIRCRPPRLPRPRPRPAHIPRP: the “shrunken log2 fold change” value was -0.0847. Turning to RRIRHRPPRLPRPRPRPKNEPRP, the “shrunken log2 fold change” value is -0.476. Under RRIRIRPPRLPRPRPRPYPCPRP stands -0.028; under RRIRGRPPRLPRPRPRPQEPPRP, 0.134. With RRIRCRPPRLPRPRPRPFGPPRP, the “shrunken log2 fold change” value is -0.283. For the sequence RRIRFRPPRLPRPRPRPDKMPRP, the “shrunken log2 fold change” value was found to be 0.0125. For RRIRDRPPRLPRPRPRPNRKPRP, the “shrunken log2 fold change” value is -0.355. As for RRIRTRPPRLPRPRPRPVFSPRP, the “shrunken log2 fold change” value is -0.648.

Regarding RRIRLRPPRLPRPRPRPMVVPRP, the “shrunken log2 fold change” value is -0.0179.

For the sequence RRIRPRPPRLPRPRPRPIEPPRP, the “shrunken log2 fold change” value came out at 0.109.

Take RRIRLRPPRLPRPRPRPYCMPRP: the “shrunken log2 fold change” value is -1.34. RRIRSRPPRLPRPRPRPAYWPRP: the “shrunken log2 fold change” value was 0.259. As for RRIRPRPPRLPRPRPRPQWQPRP, the “shrunken log2 fold change” value was -0.109.

RRIRPRPPRLPRPRPRPTYIPRP: the “shrunken log2 fold change” value is -0.0167. In the case of RRIRHRPPRLPRPRPRPKDCPRP it was 0.00375. Turning to RRIRMRPPRLPRPRPRPPGVPRP, the “shrunken log2 fold change” value amounted to 0.919. In the case of RRIRPRPPRLPRPRPRPVMGPRP it was 0.149; in that of RRIRGRPPRLPRPRPRPLTIPRP, -0.155; in that of RRIRNRPPRLPRPRPRPNLNPRP, -0.557. Regarding RRIRMRPPRLPRPRPRPLDNPRP, the “shrunken log2 fold change” value turned out to be 0.957. Under RRIRFRPPRLPRPRPRPYYQPRP stands -0.203; under RRIRLRPPRLPRPRPRPMCLPRP, -0.166. With RRIRQRPPRLPRPRPRPMRIPRP, the “shrunken log2 fold change” value was -0.0249. Under RRIRLRPPRLPRPRPRPGYMPRP stands -0.459; under RRIRARPPRLPRPRPRPEHAPRP, 0.564. Consider RRIRWRPPRLPRPRPRPSWSPRP, for which the “shrunken log2 fold change” value was 0.862.

Turning to RRIRSRPPRLPRPRPRPLYWPRP, the “shrunken log2 fold change” value is -0.154. Under RRIRIRPPRLPRPRPRPNVDPRP stands -0.272. Take RRIRNRPPRLPRPRPRPLPQPRP: the “shrunken log2 fold change” value came out at 0.229.

With RRIRYRPPRLPRPRPRPLLPPRP, the “shrunken log2 fold change” value is -0.266. Regarding RRIRSRPPRLPRPRPRPRRSPRP, the “shrunken log2 fold change” value was determined as 0.181. In the case of RRIRNRPPRLPRPRPRPWPSPRP, the “shrunken log2 fold change” value worked out at 0.0756. Under RRIRERPPRLPRPRPRPVALPRP stands -0.377. For RRIRNRPPRLPRPRPRPWPKPRP, the “shrunken log2 fold change” value is 0.0323. With RRIRPRPPRLPRPRPRPFILPRP, the “shrunken log2 fold change” value was -0.582.

For RRIRTRPPRLPRPRPRPFWRPRP, the “shrunken log2 fold change” value came out at 0.112.

With RRIRSRPPRLPRPRPRPNRNPRP, the “shrunken log2 fold change” value is -0.163. Under RRIRRRPPRLPRPRPRPHEFPRP stands 0.0543. In the case of RRIRSRPPRLPRPRPRPAHFPRP, the “shrunken log2 fold change” value is -0.418.

For RRIRHRPPRLPRPRPRPSCIPRP, the “shrunken log2 fold change” value is -0.265. For RRIRHRPPRLPRPRPRPYVKPRP, the “shrunken log2 fold change” value is -0.509.

With RRIRHRPPRLPRPRPRPESMPRP, the “shrunken log2 fold change” value came to 0.0353. As for RRIRDRPPRLPRPRPRPHHPPRP, the “shrunken log2 fold change” value is -0.408. In the case of RRIRIRPPRLPRPRPRPAQQPRP it was -0.0315. Take RRIRNRPPRLPRPRPRPYVTPRP: the “shrunken log2 fold change” value is -0.553. Consider RRIRCRPPRLPRPRPRPEYPPRP, for which the “shrunken log2 fold change” value was 0.0734. Regarding RRIRHRPPRLPRPRPRPHQPPRP, the “shrunken log2 fold change” value is -0.0185. Under RRIRQRPPRLPRPRPRPIIWPRP stands 0.0173; under RRIRIRPPRLPRPRPRPLCNPRP, -0.807. RRIRCRPPRLPRPRPRPRIDPRP: the “shrunken log2 fold change” value turned out to be 0.117. As to RRIRCRPPRLPRPRPRPGRSPRP, the “shrunken log2 fold change” value worked out at 0.0654.

As for RRIRKRPPRLPRPRPRPAMHPRP, the “shrunken log2 fold change” value stood at 0.402.

As for RRIRLRPPRLPRPRPRPPDDPRP, the “shrunken log2 fold change” value amounted to 0.397.

On to RRIRKRPPRLPRPRPRPVFRPRP, for which the “shrunken log2 fold change” value is 0.278. For RRIRYRPPRLPRPRPRPLTIPRP, the “shrunken log2 fold change” value was -0.0265. Take RRIRTRPPRLPRPRPRPDLCPRP: the “shrunken log2 fold change” value was 0.144.

Turning to RRIRVRPPRLPRPRPRPKNGPRP, the “shrunken log2 fold change” value is -0.129. As for RRIRDRPPRLPRPRPRPNWVPRP, the “shrunken log2 fold change” value is 0.0019. RRIRGRPPRLPRPRPRPIMIPRP: the “shrunken log2 fold change” value was determined as 0.0216. In the case of RRIRFRPPRLPRPRPRPRPLPRP it was 0.406; in that of RRIRGRPPRLPRPRPRPYRHPRP, 0.161. For RRIRRRPPRLPRPRPRPPHFPRP, the “shrunken log2 fold change” value was found to be 0.897. As to RRIRCRPPRLPRPRPRPHIMPRP, the “shrunken log2 fold change” value is -1.4.

In the case of RRIRYRPPRLPRPRPRPATCPRP, the “shrunken log2 fold change” value was found to be 0.0415. In the case of RRIRTRPPRLPRPRPRPMHPPRP, the “shrunken log2 fold change” value was determined as 0.0402. In the case of RRIRDRPPRLPRPRPRPETPPRP, the “shrunken log2 fold change” value is 0.904. Regarding RRIRVRPPRLPRPRPRPMADPRP, the “shrunken log2 fold change” value is -0.0473.

As for RRIRLRPPRLPRPRPRPNRVPRP, the “shrunken log2 fold change” value is -0.0939. As for RRIRRRPPRLPRPRPRPTKWPRP, the “shrunken log2 fold change” value was 0.0371. In the case of RRIRVRPPRLPRPRPRPPKNPRP, the “shrunken log2 fold change” value turned out to be 0.192.

Turning to RRIRNRPPRLPRPRPRPRKIPRP, the “shrunken log2 fold change” value was found to be 0.39. Regarding RRIRLRPPRLPRPRPRPITRPRP, the “shrunken log2 fold change” value was 0.177. As for RRIRHRPPRLPRPRPRPWNIPRP, the “shrunken log2 fold change” value is -0.246. Regarding RRIRSRPPRLPRPRPRPHRMPRP, the “shrunken log2 fold change” value is -0.697. In the case of RRIRDRPPRLPRPRPRPSCEPRP it was 0.042; in that of RRIRWRPPRLPRPRPRPWWMPRP, 0.388; in that of RRIRVRPPRLPRPRPRPSNCPRP, -0.225. In the case of RRIRDRPPRLPRPRPRPFWDPRP it was 0.148. In the case of RRIRRRPPRLPRPRPRPMQAPRP it was 1.13. Regarding RRIRKRPPRLPRPRPRPVFYPRP, the “shrunken log2 fold change” value was -0.0751. Turning to RRIRMRPPRLPRPRPRPMYDPRP, the “shrunken log2 fold change” value is -0.0496. In the case of RRIRFRPPRLPRPRPRPKRTPRP, the “shrunken log2 fold change” value turned out to be 0.0846. On to RRIRQRPPRLPRPRPRPIKMPRP, for which the “shrunken log2 fold change” value is -0.39. Take RRIRARPPRLPRPRPRPQTQPRP: the “shrunken log2 fold change” value amounted to 0.628.

As to RRIRERPPRLPRPRPRPWRCPRP, the “shrunken log2 fold change” value was -0.0332. For the sequence RRIRKRPPRLPRPRPRPNHEPRP, the “shrunken log2 fold change” value was -0.0766.

Regarding RRIRCRPPRLPRPRPRPFHIPRP, the “shrunken log2 fold change” value is -1.96. As for RRIRDRPPRLPRPRPRPYVPPRP, the “shrunken log2 fold change” value was -0.604. In the case of RRIRSRPPRLPRPRPRPWYSPRP it was -0.257; in that of RRIRTRPPRLPRPRPRPMTGPRP, 0.17; in that of RRIRKRPPRLPRPRPRPSKLPRP, 0.0104. Regarding RRIRSRPPRLPRPRPRPCRNPRP, the “shrunken log2 fold change” value was -0.273.

Consider RRIRKRPPRLPRPRPRPCQIPRP, for which the “shrunken log2 fold change” value turned out to be 0.0947.

Turning to RRIRPRPPRLPRPRPRPIQQPRP, the “shrunken log2 fold change” value turned out to be 0.000308. Take RRIRCRPPRLPRPRPRPKDEPRP: the “shrunken log2 fold change” value was found to be 0.393. In the case of RRIRCRPPRLPRPRPRPSKDPRP, the “shrunken log2 fold change” value was -0.361. For RRIRGRPPRLPRPRPRPLGLPRP, the “shrunken log2 fold change” value amounted to 0.841.

For RRIRLRPPRLPRPRPRPTHSPRP, the “shrunken log2 fold change” value is 0.122. As for RRIRARPPRLPRPRPRPICMPRP, the “shrunken log2 fold change” value is 0.055.
